This is an account of results in US20220404334A1, “BIOCHIP HAVING MICROCHANNEL PROVIDED WITH CAPTURING AGENT FOR PERFORMING CYTOLOGICAL ANALYSIS” (CASE WESTERN RESERVE UNIVERSITY, priority 2019, published 2022).

Assay [1] relates to heme-activated endothelial cells (HUVECs and HPMECs). The experiment in a line: Endothelium-on-a-chip: sickle RBC adhesion to heme-activated endothelial cells under hypoxia. The class given is cell-based, human. Conditions: 5 μM, N=13 subjects. Here is the method:
The assembled microchannels are rinsed serially with PBS, 100% ethanol, and GMBS following a 20-minute incubation. Thereafter, another washing step is performed using 100% ethanol and PBS before loading the microchannels with a fibronectin solution at a concentration of 0.2 mg/mL. Fibronectin-loaded microchannels are incubated at 37° C. for 1 hour for complete protein immobilization on the GMBS-functionalized surface. To prepare the endothelialized microchannels, human endothelial cells are seeded into fibronectin-coated microchannels at a density of 4×10^6 cells/mL and incubated for 2 hours at 37° C. and 5% CO2 to allow cell attachment and spreading, while replacing the culture medium in the microchannels every hour.
The activating agents (e.g., heme or TNF-α) are then injected into the microchannels in a serum-free medium and incubated for a pre-determined period for activation to take place. Before using the activated endothelial cells, the microfluidic channels are rinsed for at least 2 times with serum-free medium.
When using blood samples collected in Ethylenediaminetetraacetic acid (EDTA) containing vacutainers, the blood samples are first centrifuged and washed three times with PBS to isolate blood cells from plasma. When in contact with adherent endothelial cells, EDTA will induce cell detachment by inhibiting Ca^2+ ions that are necessary for cell adhesion through integrins. […]

The target of assay [2] is Recombinant human ICAM-1 (Homo sapiens, UniProt P05362). In words: Microfluidic flow adhesion of HbSS RBCs to immobilized ICAM-1, inhibition experiments. The class given is cell-based. As for the experimental part:
ICAM-1 functionalized microchannels of the microfluidic device were connected to blood-containing syringes through 40-cm inlet tubing. A total of […] of whole blood sample was perfused into the microchannels at an approximate shear stress of 1 dyne/cm^2, corresponding to the typical shear stress observed in postcapillary venules, via a constant displacement syringe pump (New Era NE-300; New Era Pump Systems, Farmingdale, N.Y.). To remove the nonadherent cells, another syringe filled with wash buffer (1% bovine serum albumin and 0.09% sodium azide in 13 phosphate buffered saline [PBS]) was connected to the microchannels, and the buffer solution was injected at […], corresponding to a wall shear stress of 1 dyne/cm^2, until all nonadherent cells had been cleared. Phase-contrast images of the microchannel surface were obtained using an inverted microscope at 203. Quantification of ICAM-1-adherent RBCs was performed manually using Adobe Photo-shop CS5 (Adobe, San Jose, Calif.) within a rectangular field of view (fov) with a surface area of 32 mm^2.
For the inhibition studies, whole HbSS blood samples were mixed with a monoclonal mouse antibody against human α4β1 or LFA-1 at a final antibody concentration of […] and incubated at 37° C. for 1 hour prior to the adhesion experiments. As a control, samples were treated with the same concentration of isotype-control mouse immunoglobulin G1 for the same duration. Anti-human LFA-1 antibody and the isotype-control mouse immunoglobulin G were from BioLegend (San Diego, Calif.). Anti-human α4β1 antibody was purchased from Abcam (Cambridge, Mass.). To block the β2-associated adhesion pathways, a recombinant human β2 protein solution (Novus Biologicals, Centennial, Colo.) was perfused into ICAM-1-functionalized microchannels and incubated for 1 hour at 37° C. Before starting the adhesion experiments, the microchannels were rinsed 3 times with PBS. Similarly, to test the inhibitory effect of fibrinogen (Enzo Life Sciences, Farmingdale, N.Y.) or low molecular weight heparin (LMWH; AMSBIO, Cambridge, Mass.), ICAM-1-functionalized microchannels were injected with fibrinogen (range, 1-20 mg/mL) or LMWH (range, 0.1-5 mg/mL). After an hour at 37° C., the microchannels were rinsed with PBS 3 times, and adhesion was assessed as above.
Minitab 19 (Minitab, State College, Pa.) was used to analyze the results. A normality test was performed to determine whether the variables were normally distributed. Because of the largely non-normally distributed variables, Mann-Whitney U tests were used to compare 2 groups, and Kruskal-Wallis tests with Dunn's correction were used to compare multiple groups, unless stated otherwise. K-means clustering analysis was performed to identify distinct subject subpopulations based on hemolysis biomarkers. Through-out this article, the error bars represent±standard error of the mean (SEM). P<0.05 was considered statistically significant.

The target of assay [3] is T1, P-selectin (Homo sapiens, UniProt P16109).
T1 sequence (P16109 42-830): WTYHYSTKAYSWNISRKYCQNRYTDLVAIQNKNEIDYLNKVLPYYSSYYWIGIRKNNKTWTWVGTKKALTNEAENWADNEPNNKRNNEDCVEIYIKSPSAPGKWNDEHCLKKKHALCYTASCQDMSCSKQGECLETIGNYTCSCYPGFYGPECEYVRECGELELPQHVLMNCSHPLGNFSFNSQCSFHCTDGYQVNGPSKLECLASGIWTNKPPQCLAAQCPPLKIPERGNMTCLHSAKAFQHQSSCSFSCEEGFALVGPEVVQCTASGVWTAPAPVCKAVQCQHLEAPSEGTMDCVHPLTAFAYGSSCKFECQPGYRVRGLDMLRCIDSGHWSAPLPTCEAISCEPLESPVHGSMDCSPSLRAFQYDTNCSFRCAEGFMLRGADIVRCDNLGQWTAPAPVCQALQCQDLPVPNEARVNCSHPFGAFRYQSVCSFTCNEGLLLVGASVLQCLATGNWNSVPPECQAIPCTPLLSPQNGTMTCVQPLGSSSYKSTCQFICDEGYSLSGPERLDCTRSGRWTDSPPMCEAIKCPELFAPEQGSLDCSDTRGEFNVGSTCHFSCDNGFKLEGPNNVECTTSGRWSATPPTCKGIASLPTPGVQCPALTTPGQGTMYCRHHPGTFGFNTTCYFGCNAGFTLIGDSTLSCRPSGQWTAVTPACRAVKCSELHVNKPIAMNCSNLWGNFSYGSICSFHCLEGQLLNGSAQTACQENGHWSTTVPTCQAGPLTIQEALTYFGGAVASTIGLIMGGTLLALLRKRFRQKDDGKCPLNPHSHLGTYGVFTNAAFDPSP
In words: Microfluidic whole blood assay of leukocyte adhesion to immobilized P-selectin, microchannels pre-treated with drug (inhibition experiments). The class given is cell-based. As for the experimental part:
(§1) Microfluidic devices were fabricated using a lamination technique. Each microfluidic device contained 3 identical microchannels with a height of 50 μm (FIG. 6A), which were designed to recapitulate volume and flow of post-capillary venules. The microchannels were functionalized with recombinant human P-selectin (25 μg/mL) and blocked with 2% bovine serum albumin (BSA) to pre-vent non-specific adhesion. After tubing assembly, whole blood samples were mixed with Hanks' buffer modified with calcium and magnesium (1:1 v/v), and 15 μL of the diluted whole blood was injected into the microchannels using New Era NE-300 syringe pump system (Farming-dale, N.Y.) at an approximate shear rate of 1 dyne/cm^2. Non-adherent cells were rinsed out by flowing Hanks' buffer. Phase-contrast images of the microchannels with adherent leukocytes were recorded at 10× with an inverted microscope (Olympus IX83) and a camera (EXi Blue EXI-BLU-RF-M-14-C), and adherent leukocytes were manually quantified with Adobe Photoshop software (San Jose, Calif.) in a 32 mm^2 area.
Crizanlizumab (ADAKVEO®, SEG101) stock solution (10 mg/mL) was donated by Novartis (Basel, Switzerland). For the inhibition experiments, P-selectin immobilized-microchannels were pre-treated with Hanks buffer as vehicle control, or Crizanlizumab with graded concentrations of 1, 10, 100 μg/mL, or 1 mg/mL at 37° C. for 30 min. There-after, the adhesion assay was performed. Human IgG2 (Sigma Aldrich, St. Louis, Mo.), at 100 μg/mL, was included as the isotype control for Crizanlizumab. For the detachment experiments, modified microchannels with individual inlets for separately injecting blood and drug-containing buffer were designed to allow transition from washing buffer to Crizanlizumab during rinsing. Two synchronous pumps connected to these inlets were programmed such that Crizanlizumab at 10 μg/mL was injected into microchannels after Hanks buffer without a disruption in shear rate. The programmed flow rates of the two synchronous pumps over the course of the experiment are shown in FIG. 7A, which insured a constant shear rate in the microchannels. Cell behaviors were also continuously recorded. Phase contrast images of the adherent leukocytes were collected during Hanks's buffer rinse and Crizanlizumab flow for comparison.
Leukocyte adhesion data were reported as mean±standard error of the mean (SEM). Clinical variables of the study population were re-ported as mean±standard deviation (SD). Statistical analyses were per-formed with Minitab (Minitab Inc., State College, Pa.). A test for normality was initially performed on relevant variables. A paired t-test was per-formed to compare paired groups before and after Crizanlizumab treatment. Statistical significance was determined based on a p-value<0.05 (p<0.05).

The target of assay [4] is T1, P-selectin. In words: Detachment experiments: drug flowed over leukocytes already adherent to immobilized P-selectin. The class given is cell-based. Here is the method:
as §1
Crizanlizumab (ADAKVEO®, SEG101) stock solution (10 mg/mL) was donated by Novartis (Basel, Switzerland). For the inhibition experiments, P-selectin immobilized-microchannels were pre-treated with Hanks buffer as vehicle control, or Crizanlizumab with graded concentrations of 1, 10, 100 μg/mL, or 1 mg/mL at 37° C. for 30 min. There-after, the adhesion assay was performed. Human IgG2 (Sigma Aldrich, St. Louis, Mo.), at 100 μg/mL, was included as the isotype control for Crizanlizumab. For the detachment experiments, modified microchannels with individual inlets for separately injecting blood and drug-containing buffer were designed to allow transition from washing buffer to Crizanlizumab during rinsing. […] Cell behaviors were also continuously recorded. […]
Leukocyte adhesion data were reported as mean±standard error of the mean (SEM). […] Statistical significance was determined based on a p-value<0.05 (p<0.05).

Assay [5] concerns the target T1, P-selectin. More on the design: host or cells: patients with SCD (endogenous protein in vivo). The conditions noted are these: infused monthly, patients with SCD; cited from earlier work.
Setting [6] is: pre-treatment 1 μg/mL, HbSS on-transfusion samples, N=8.
The mark [7] stands for this setting: pre-treatment 10 μg/mL, HbSS on-transfusion samples, N=8.
Setting [8] is: pre-treatment 1 mg/mL, HbSS on-transfusion samples, N=8.

Recombinant human ICAM-1, sequence (P05362 28-532): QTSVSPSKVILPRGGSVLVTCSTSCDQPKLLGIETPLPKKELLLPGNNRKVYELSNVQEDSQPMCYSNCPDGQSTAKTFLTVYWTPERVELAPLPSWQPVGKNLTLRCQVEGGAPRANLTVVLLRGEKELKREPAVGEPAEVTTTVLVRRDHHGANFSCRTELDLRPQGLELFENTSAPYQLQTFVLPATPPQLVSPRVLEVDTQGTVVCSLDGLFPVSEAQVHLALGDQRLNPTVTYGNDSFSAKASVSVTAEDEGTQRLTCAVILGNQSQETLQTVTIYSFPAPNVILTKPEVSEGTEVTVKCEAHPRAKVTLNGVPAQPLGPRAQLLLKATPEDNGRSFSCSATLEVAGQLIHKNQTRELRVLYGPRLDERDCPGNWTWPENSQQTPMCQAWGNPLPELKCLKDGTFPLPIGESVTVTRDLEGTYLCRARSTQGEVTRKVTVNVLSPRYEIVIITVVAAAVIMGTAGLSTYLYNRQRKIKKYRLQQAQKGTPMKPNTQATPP

For `Cc1ccc(NC(=O)c2ccc(CN3CCN(C)CC3)cc2)cc1Nc1nccc(-c2cccnc2)n1` [imatinib], the “Sickle RBC adhesion to heme-activated endothelial cells (mean adhesion±SEM)” value in assay [1] was 171±30.
On to fibrinogen, for which the “Effect on RBC adhesion to ICAM-1” value in assay [2] (microchannels incubated with 1 mg/mL) was “did not inhibit RBC adhesion”; in assay [2] (microchannels treated with 1, 5, 10, 20 mg/mL, n=5), “significantly decreased RBC adhesion in a concentration-dependent manner”. In addition, the Adhesion blocked entry in assay [2] (microchannels incubated with 5 mg/mL) is “about 50%”.
On to low molecular weight heparin [LMWH], for which the “Effect on RBC adhesion to ICAM-1” value in assay [2] (preincubation of microfluidic channels (not blood)) was “had no effect”; in assay [2] (whole blood samples treated (1:1 v/v) at 0.1, 1, and 5 mg/mL) it was “significantly blocked RBC adhesion to ICAM-1”. In assay [2] (pretreatment of blood samples at 0.1 mg/mL), the “Inhibition of RBC adhesion to ICAM-1” value turned out to be 0.80%.
In the case of “recombinant human β2 protein: recombinant human β2 protein solution (Novus Biologicals) to block β2-associated adhesion pathways”, the “Effect on HbSS RBC adhesion to immobilized ICAM-1” value in assay [2] (microchannels treated with protein 1 hour 37° C., 5 experiments) is listed as “No significant reduction”.

B1: Crizanlizumab: humanized monoclonal antibody against P-selectin (antibody, chains of the INN, looked up, V domains shown)
VH: QVQLVQSGAEVKKPGASVKVSCKVSGYTFTSYDINWVRQAPGKGLEWMGWIYPGDGSIKYNEKFKGRVTMTVDKSTDTAYMELSSLRSEDTAVYYCARRGEYGNYEGAMDYWGQGTLVTVSS
VL: DIQMTQSPSSLSASVGDRVTITCKASQSVDYDGHSYMNWYQQKPGKAPKLLIYAASNLESGVPSRFSGSGSGTDFTLTISSLQPEDFATYYCQQSDENPLTFGGGTKVEIK
With B1, the “Leukocyte adhesion (adherent leukocytes, mean±SEM)” value came out at 596±221 in assay [3] (isotype control comparison, 100 μg/mL, N=3); 1535±258 in assay [3] (setting [6]); 1057±325 in assay [3] (setting [7]); 703±161 in assay [3] (pre-treatment 100 μg/mL, 37° C. 30 min, HbSS on-transfusion samples, N=8, 32 mm^2 area, 1 dyne/cm^2); 587±168 in assay [3] (setting [8]); 179±79 in assay [3] (pre-treatment 1 mg/mL, non-transfusion individuals (on-hydroxyurea or supportive care), N=8). For the same molecule, the “Leukocyte adhesion, range” value in assay [3] (setting [6]) is listed as 257-2732; in assay [3] (setting [7]), 195-2948; in assay [3] (pre-treatment 100 μg/mL, HbSS on-transfusion samples, N=8), 131-1474; in assay [3] (setting [8]), 81-1403; in assay [3] (pre-treatment 1 mg/mL, non-transfusion individuals, N=8), 39-691. For the same molecule, in assay [4] (post-treatment 10 μg/mL after leukocytes adhered), the “Effect of post-treatment on adherent leukocytes” value was “detachment of rolling leukocytes whereas firmly attached cells remained adherent”. In assay [4] (post-treatment 10 μg/mL, N=6), the “Leukocyte adhesion after introducing drug, range” value was 58-2388. For the same molecule, in assay [4] (post-treatment 10 μg/mL, N=6 (4 on-transfusion)), the “Leukocyte adhesion after introducing drug into the microchannels (mean±SEM)” value was determined as 719±354. Also, in assay [5], the “Annual rate of VOC” value is given as “reduced the annual rate of VOC”.
